In US10188706B2, “Plasminogen activator mutants as anti-fibrinolytic agents” (HADASIT MEDICAL RESEARCH SERVICES & DEVELOPMENT LIMITED, priority 2012, dated 2019):
Entries after “also recorded” stand apart in the source; their conditions may differ.

Experiments:
reteplase = reteplase (Homo sapiens, UniProt P00750); test: Fibrinolysis assay in human plasma derived clots, lysis by reteplase; type: biochemical; conditions: reteplase 20 nM, mutant 10 nM, FIG. 2B
Experimental: (§1) Fibrinolysis Assay in Human Plasma Derived Clots
(§2) Clots were formed by placing human plasma (200 μL) in 16-mm diameter tissue culture wells flowed by adding thrombin (0.4 U/mL final concentration). Fibrinolysis was measured as described in Higazi A A et al., Blood (1998), 92(6):2075-83). Briefly, 10 μL tPA or uPA were placed over the plasma clots for 2 hours at 37° C., photographed and the diameter of the wholes were determined.

uPA [1] = target: T1, uPA (Homo sapiens, UniProt P00749); test: Plasminogen activator activity, chromogenic assay without fibrin, activation by uPA; type: biochemical; conditions: FIG. 2D; for plasminogen activation by uPA in the absence of fibrin, in the presence of TA: mutant 100 nM added together with TA
T1 construct: Single-chain urokinase (uPA) was purified, characterized as previously reported; made in house
Experimental: (§3) Plasminogen Activator Activity
(§4) Plasminogen activator activity was determined by adding tPA (50 nM) or uPA (20 nM), to a reaction mixture containing Glu-plasminogen and the plasmin chromogenic substrate Spectrazyme PL (100 μM) in phosphate-buffered saline (PBS) at 37° C., and the light absorbance at 405 nm was measured continuously over time. The initial velocities of plasmin generation at the different conditions were calculated from the change in the A405 nm over time. The initial velocity of the reaction at each plasminogen concentration was obtained by calculating the change in the rate of A405 over different time intervals and the results were expressed as the change in optical density (ΔOD) per minute, which represents the slope of the initial velocity of plasminogen activation (Higazi A et al., J Biol Chem. (1995), 270(29):17375-80).

tPA = test: Plasminogen activator activity, chromogenic assay without fibrin, activation by tPA; type: biochemical, human; conditions: FIG. 2D; for plasminogen activation by tPA in the absence of fibrin, in the presence of TA: mutant 100 nM added together with TA
Experimental: as §3, §4

uPA [2] = target: T1, uPA; test: Fibrinolysis assay in clots from fresh whole human blood monitored by thromboelastography (TEG), lysis by uPA; type: biochemical; conditions: uPA 10 nM; 50 or 500 nM tPA-S481A; FIG. 2C
Experimental: (§5) Fibrinolysis Assay in Blood Clots Derived from Fresh Whole Human Blood
(§6) Clot viscoelastic properties were assessed by thromboelastography (TEG®, Haemoscope) and rotational thromboelastometry (ROTEM®, Pentapharm). Both systems use a vertical pin within a cup that contains the WB sample. In TEG®, the cup oscillates and the pin is stationary whereas in ROTEM®, the cup is stationary while the pin oscillates. As a clot forms between the cup and the pin, the reduction in transmitted rotation from the cup to the pin (TEG®) or impedance to the oscillatory movement of the pin (ROTEM®) is detected and a trace is generated.

NMDA-Rs = test: Activation of NMDA-Rs by WT-tPA
WT-tPA = test: Fibrinolysis assay in human plasma derived clots, lysis by WT-tPA; type: biochemical
Chain of WT-tPA (P00750 36-562): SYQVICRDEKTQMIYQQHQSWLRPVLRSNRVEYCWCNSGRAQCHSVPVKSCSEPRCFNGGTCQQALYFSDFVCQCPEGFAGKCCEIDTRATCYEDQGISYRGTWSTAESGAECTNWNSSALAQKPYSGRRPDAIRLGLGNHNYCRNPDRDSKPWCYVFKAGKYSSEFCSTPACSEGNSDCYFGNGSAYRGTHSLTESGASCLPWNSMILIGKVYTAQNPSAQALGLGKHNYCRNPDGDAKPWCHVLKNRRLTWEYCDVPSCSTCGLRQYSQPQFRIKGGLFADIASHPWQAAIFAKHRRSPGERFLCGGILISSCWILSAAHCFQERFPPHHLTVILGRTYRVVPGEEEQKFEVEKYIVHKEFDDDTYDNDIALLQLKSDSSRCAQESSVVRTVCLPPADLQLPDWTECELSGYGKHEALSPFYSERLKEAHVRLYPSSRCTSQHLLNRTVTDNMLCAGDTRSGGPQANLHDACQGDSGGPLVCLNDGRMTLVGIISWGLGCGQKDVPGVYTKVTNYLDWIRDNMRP
Experimental: as §1, §2

WT mice subjected to CHI = test: Closed head injury (CHI) model of TBI in WT mice; type: in vivo, mouse
Experimental: Eight to twelve weeks old C57 mice obtained from Harlan, Israel. Mice were administered standard laboratory chow and water ad libitum, and kept in controlled temperature and light conditions. Animal experiments were carried out according to the guidelines of the Hebrew University-Institutional Committee for Care and Use of Laboratory Animals, and with the committee's approval.
(§7) Closed Head Injury (CHI) Model
(§8) Head trauma was induced by using a modified weight-drop device, as previously described (Chen Y. et al. (1996) J. Neurotrauma, 13:557-568). Briefly, after induction of ether anesthesia, a midline longitudinal incision was made, the skin was retracted and the skull was exposed. The left anterior frontal area was identified and a Teflon tipped cone (2-mm diameter) was placed 1 mm lateral to the midline, in the midcoronal plane. The head was held in place manually and a 75-g weight was dropped on the cone from a height of 18 cm, resulting in focal injury to the left hemisphere. After trauma, the mice received supporting oxygenation with 95% 02 for no longer than 2 min and were then returned to their cages. In sham controls only anesthesia and skin incision were carried out.

[3] = tested on: mice treated with Coumadin and subjected to CHI; test: Closed head injury (CHI) in mice anticoagulated with warfarin (Coumadin); type: in vivo, mouse; conditions: WT mice, INR 2.5; tPA-S481A 1 mg/kg immediately after TBI; Hgb at 2 or 8 hrs; FIG. 6C
Source text: as §7, §8

uPA [4] = target: T1, uPA; test: Fibrinolysis assay in human plasma derived clots, lysis by uPA; type: biochemical; conditions: uPA 50 nM; mutant 50 nM; FIG. 2A, 2B
Experimental: as §1, §2

plasminogen = target: T2, plasminogen (Homo sapiens, UniProt P00747); test: Ser481-Ala tPA/plasminogen protein interaction assay by co-immunoprecipitation; type: binding
T2 construct: Glu-plasminogen was prepared from human plasma; from tissue; host or cells: human plasma
Experimental: Ser^481-Ala tPA/Plasminogen Protein Interaction Assay by Co-Immunoprecipitation
Human Ser^481-Ala tPA and plasminogen, each at 100 nM final concentration in absence or presence of 1 μM uPA or fibrin degradation products, were incubated with goat polyclonal antibody to plasminogen and incubated with Protein A agarose. The protein A agarose beads were separated by centrifugation, washed, and boiled for 5 min. The beads were precipitated by centrifugation and the samples were run on NuPAGE 4-12%. As a control, 80 ng of human Ser^481-Ala tPA was loaded on the gel. The proteins from the gel were transferred onto a PVDF membrane. The membrane was blocked in milk/PBST before incubation for 1 hr with mouse monoclonal antibody to tPA. Subsequently it was washed, incubated with goat anti-mouse IgG-HRP conjugate, washed again, and detected with ECL.

[5] = tested on: tPA-/- and uPA-/- mice subjected to CHI; test: Closed head injury (CHI) model in tPA-/- and uPA-/- mice; type: in vivo, mouse; conditions: WT-tPA or WT-uPA 5 mg/kg plus equimolar dose of mutant
Source text: as §7, §8

WT tPA = target: T3, WT tPA (Homo sapiens, UniProt P00750); test: Fibrinolysis assay in clots from fresh whole human blood monitored by thromboelastography (TEG), lysis by WT tPA; type: biochemical; conditions: WT tPA 10 nM; 50 or 500 nM tPA-S481A; FIG. 2C
T3 construct: purchased Genentech (South San Francisco, Calif.)
T3 sequence (P00750 36-562): as above
Experimental: as §5, §6

B1: tPA-S^481A: catalytically inactive human tPA variant, Ser481 substituted to Ala; SEQ ID NO. 1 (SEQ ID NO. 12 with N-terminal RS) (protein, listed as Homo sapiens)
chain: GARSYQVICRDEKTQMIYQQHQSWLRPVLRSNRVEYCWCNSGRAQCHSVPVKSCSEPRCFNGGTCQQALYFSDFVCQCPEGFAGKCCEIDTRATCYEDQGISYRGTWSTAESGAECTNWNSSALAQKPYSGRRPDAIRLGLGNHNYCRNPDRDSKPWCYVFKAGKYSSEFCSTPACSEGNSDCYFGNGSAYRGTHSLTESGASCLPWNSMILIGKVYTAQNPSAQALGLGKHNYCRNPDGDAKPWCHVLKNRRLTWEYCDVPSCSTCGLRQYSQPQFRIKGGLFADIASHPWQAAIFAKHRRSPGERFLCGGILISSCWILSAAHCFQERFPPHHLTVILGRTYRVVPGEEEQKFEVEKYIVHKEFDDDTYDNDIALLQLKSDSSRCAQESSVVRTVCLPPADLQLPDWTECELSGYGKHEALSPFYSERLKEAHVRLYPSSRCTSQHLLNRTVTDNMLCAGDTRSGGPQANLHDACQGDAGGPLVCLNDGRMTLVGIISWGLGCGQKDVPGVYTKVTNYLDWIRDNMRP
reteplase
  clot lysis induced by reteplase: inhibit the clot lysis induced by reteplase
reteplase; listed as tPA^Ser481Ala
  clot lysis induced by reteplase: inhibit the fibrinolysis
uPA [1]
  plasminogen activation by uPA in the absence of fibrin, in the presence of TA: inhibited the activation of plasminogen by uPA
uPA [1]; listed as tPA^Ser481Ala
  plasminogen activation by uPA in the absence of fibrin, in the presence of TA: inhibit plasminogen activation
uPA [1]; plasminogen 500 nM, uPA 20 nM, mutants 100 nM or TA 200 nM alone
  plasminogen activation by uPA in the absence of fibrin (change in OD per minute): Neither tPA-S^481A nor tPA-S^481A-DS inhibited; also recorded: had no effect
tPA
  plasminogen activation by tPA in the absence of fibrin, in the presence of TA: inhibited the plasminogen activation induced by tPA
tPA; listed as tPA^Ser481Ala
  plasminogen activation by tPA in the absence of fibrin, in the presence of TA: inhibit plasminogen activation
tPA; plasminogen 500 nM, WT-tPA 50 nM, mutants 100 nM or TA 200 nM alone
  plasminogen activation by tPA in the absence of fibrin (change in OD per minute): Neither tPA-S^481A nor tPA-S^481A-DS inhibited; also recorded: had no effect
uPA [2]
  lysis of clots from fresh whole human blood monitored by TEG, by uPA: inhibited lysis
NMDA-Rs
  activation of NMDA-Rs by WT-tPA: inhibited activation of NMDA-Rs by WT-tPA
WT-tPA; TA tested at its maximal inhibitory concentration, FIG. 2B
  potency as inhibitor of fibrinolysis compared with TA: more potent inhibitors of fibrinolysis than TA
WT-tPA; WT-tPA 20 nM, mutant 50 nM, FIG. 2A, 2B
  lysis of human plasma derived clots by WT-tPA: inhibited lysis
WT mice subjected to CHI; WT mice given WT-tPA 5 mg/kg immediately after CHI plus equimolar mutant
  intracerebral hemorrhage increased by injected WT-tPA post CHI: could be inhibited
WT mice subjected to CHI; WT mice, 1 mg/kg IV, measured 2 hours after CHI, FIG. 4A, 1 mg/kg
  plasma levels of d-Dimers post CHI: significantly attenuated the increase in d-Dimers; also recorded: inhibited the formation of d-Dimers
WT mice subjected to CHI; WT mice, 1 mg/kg IV, measured 2 hours after CHI, FIG. 4B, 1 mg/kg
  platelet counts / thrombocytopenia post CHI: prevented the development of thrombocytopenia; also recorded: inhibited the development of thrombocytopenia
WT mice subjected to CHI; WT mice, IV after CHI, CSF obtained 2 hours after CHI, tested on plasma derived clots
  CSF fibrinolytic activity post CHI: inhibited CSF fibrinolytic activity
WT mice subjected to CHI; WT mice, IV immediately after or 2 hrs after CHI, Hgb at 2 or 8 hrs, MRI at 24 hrs
  intracerebral hemorrhage (MRI, extravasation of Hgb) post CHI: significantly attenuated the expansion of intracerebral hemorrhage; also recorded: inhibited
WT mice subjected to CHI; combination in optimal concentrations, FIG. 3B
  inhibition of intracerebral hemorrhage compared with combination of TA and aprotinin: comparable to the inhibition induced by a combination of TA and aprotinin
WT mice subjected to CHI; given 2 hrs after CHI, FIG. 5
  neuroprotection (neurological severity score, NSS): the difference in neuroprotection provided by the two tPA variants vanished
WT mice subjected to CHI; given IV immediately after CHI, 1 mg/kg, FIG. 5
  neuroprotection (neurological severity score, NSS, 24 hours after CHI): exerts neuroprotection
WT mice subjected to CHI; optimal concentrations of TA or aprotinin, FIG. 3B
  potency as inhibitor of intracerebral hemorrhage compared with TA or aprotinin: more potent inhibitors of intracerebral hemorrhage than optimal concentrations of TA or aprotinin
[3]
  post-traumatic intracerebral hemorrhage (brain hemoglobin) in warfarin-anticoagulated mice: almost totally inhibited
uPA [4]
  lysis of human plasma derived clots by uPA: inhibited lysis
plasminogen; in the absence of fibrin, 100 nM each
  binding to plasminogen (complex formation): no complexes were formed
plasminogen; in the presence of fibrin, 100 nM each, immunoprecipitated with anti-plasminogen, detected with anti-tPA
  binding to plasminogen (complex formation): binds to plasminogen only in the presence of fibrin; also recorded: formed a stable complex
plasminogen; with fibrin in the presence of 1 μM uPA
  binding to plasminogen (complex formation): inhibited by uPA
[5]
  expansion of post traumatic ICH in knock-out mice given exogenous WT-tPA or WT-uPA: inhibited the expansion of the post traumatic ICH
WT tPA
  lysis of clots from fresh whole human blood monitored by TEG, by WT tPA: inhibited lysis
